# In IntAct's records for PubMed 25888478:
# B1: Protein interacting with Hsp90 1 (Saccharomyces cerevisiae), P38768 (parent)
# chain: MADFLLRPIKQRHRNEDKYVSVDAADGSVSKIEPIADFVIKTKLLSANGPEKLQDGRKVFINVCHSPLVPKPEVDFNARIVFPLIIQNEWEIPIITSCYRMDHDKKGQECYVWDCCINSDCSRWICDDIQLREILVEWCLESCEIRDSVVLCRDRIAFPKMKKKGAELPALEVLNDELHQDYKAKMHKIIEEEAGDPMSILRGRNDDGDDNNDPDDGTLPPLFPIENKISGAKIEEIDKNEIAHRNLKQAPAPAPAPHEQQEDVPEYEVKMKRFKGAAYKLRILIENKAPNSKPDRFSPSYNFAENILYINGKLSIPLPRDIVVNAADIKIFHIRKERTLYIYI
# partner: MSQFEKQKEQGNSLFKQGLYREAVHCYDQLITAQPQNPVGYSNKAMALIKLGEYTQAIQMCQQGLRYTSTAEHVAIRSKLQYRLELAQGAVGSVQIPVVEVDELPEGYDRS
# Variants of: B1
# Settings: with tah1_yeast TAH1, P25638
row,effect of a mutation on the interaction,Variant
1,disrupting interaction,N306S
